The RNAGym collection of RNA variant scans (doi:10.1021/acssynbio.7b00057)

B1: Pistol ribozyme (parent)
chain: GGGUCGUUGUUCCAUAAUCGCGUGGAUAUGGCACGCAAGUUUCUACCGGGCACCGUAAAUGUCCGACUGGAGCCGUUCGGGCGGCUAUAAACAGACCUCAGGCCCGAAGCGUGGCGGCACCUGCCGCCGGUGGUAAAAAAGAUCGGAAGAGCACACGUCU

Variants of: B1
Assay: aptazyme ON/OFF ratio, guanine; higher = stronger switching; co-transcriptional cleavage with and without guanine

Aptazyme ON/OFF ratio, 1.14:
U7C G9U U11G C12A C13U
U7C G9U U10G U11C C12U
U7C G9C U11A C12G C13U
U7C G9U U10A U11G C13A
U7C G9U U10A U11A C12U C13G
U7C G9U C12G
U7C G9U U11C C12A C13U

Aptazyme ON/OFF ratio, 1.09:
U7C G9U U11G C12A
U7C G9C U11G C12G C13G
U7C G9U U10G U11A C13A
U7C G9U U10G U11C C12G
U7C G9U U10C C12U
U7C G9U U10C C12G
U7C G9U U10G U11C
U7C U8A C12A C13G
U7C G9U U10A U11G C12U C13A

Aptazyme ON/OFF ratio, 1.22:
U7C U8A G9A
U7C G9U U10A C13U

Aptazyme ON/OFF ratio, 1.43:
U7C G9U U10A U11C C12G

Aptazyme ON/OFF ratio, 1.2:
U7C G9U U10G U11A C12A
U7C G9U U10A U11A C12G C13U
U7C G9U U11A C13A
U7C G9U U10G U11A C12A C13A
U7C G9U U10G U11C C12A
U7C G9U U10A U11A C12A

Aptazyme ON/OFF ratio, 1.3:
U7C G9U U10A U11A C12A C13A
U7C U8A C12A

Aptazyme ON/OFF ratio, 1.36:
U7C G9U U11A C12A
U7C G9U U10A U11A C12U

Aptazyme ON/OFF ratio, 1.1:
U7C G9U U10A U11A C12A C13G
U7C G9U U11G C12A C13G
U7C G9U U10C U11A C13A
U7C G9U U11A C12A C13G
U7C G9U U10G U11A C12U C13G
U7C G9U U10G U11A C12U C13U
U7C G9U U11G C12G C13U
U7C G9U U10A U11C C12U
U7C G9U U10C C12A
U7C G9U C12G C13G

Aptazyme ON/OFF ratio, 1.37:
U7C U8A C12G
U7C G9U U10A C12U

Aptazyme ON/OFF ratio, 1.16:
U7C G9U U10C U11A C13U
U7C G9U U10C U11A C12U C13U

Aptazyme ON/OFF ratio, 1.33:
U7C G9U U11A C12G

Aptazyme ON/OFF ratio, 1.19:
U7C G9U U10A U11A C12G C13G
U7C G9U U11G C12A C13A
U7C G9U U10G U11A C12U C13A
U7C G9U C12A C13U
U7C G9U U10C U11A C12U
U7C G9U U10C U11A C12G C13A

Aptazyme ON/OFF ratio, 1.29:
U7C G9U U11A C12A C13U
U7C G9U U10A U11C C12A
U7C G9U U10A U11A C12G
U7C G9U U10A U11C C12U C13U

Aptazyme ON/OFF ratio, 1.18:
U7C G9U U10A U11A C12A C13U
U7C G9U U11G C12G
U7C G9U U11G C12G C13A
U7C G9U C12A C13A
U7C G9U U10A C13A
U7C G9U U10A U11G C12U C13U

Aptazyme ON/OFF ratio, 1.03:
U7C G9C U11A C13A
U7C G9U U11A C13G
U7C G9C U11C C12U C13G
U7C G9C U11C C12U C13U
U7C G9U U10A U11C C13G
U7C G9C U11A C12U C13G
U7C G9U U10G U11A
U7C G9U U11G C13G
U7C G9U U10A U11C C12U C13G

Aptazyme ON/OFF ratio, 1.71:
U7C U8A C13U

Aptazyme ON/OFF ratio, 1.32:
U7C U8A G9A C12A

Aptazyme ON/OFF ratio, 1.13:
U7C G9U U10G U11A C12A C13G
U7C G9C U11G C12G
U7C G9U U10C U11A C12U C13A
U7C G9U C12A

Aptazyme ON/OFF ratio, 1.24:
U7C G9U U10G U11A C12G C13G

Aptazyme ON/OFF ratio, 1.82:
U7C G9U U10A C12A

Aptazyme ON/OFF ratio, 1.02:
U7C G9C U11A C13U
U7C G9U U11C C13G
U7C G9C U11A C12U C13A
U7C G9C U11A C12U
U7C G9U U10A U11G C13G
U7C G9U U10C U11C C12G
U7C G9U U10C U11C C12U
U7C G9U U10C U11C C12U C13A
U7C G9U U10C U11C C12U C13G

Aptazyme ON/OFF ratio, 1.31:
U7C U8A C13A

Aptazyme ON/OFF ratio, 1.23:
U7C G9U U10A U11C C12U C13A
U7C G9U U10C U11A C12G C13G

Aptazyme ON/OFF ratio, 1.08:
U7C G9U U10G U11A C12U
U7C G9C U11G C12G C13A
U7C G9U U10C C12U C13A
U7C G9U U10C C12U C13U
U7C G9C U11G C12U
U7C G9U C12A C13G

Aptazyme ON/OFF ratio, 1:
U7C G9C U11A C12G

Aptazyme ON/OFF ratio, 1.47:
U7C G9U U11G C12U
U7C G9U U10A C12G

Aptazyme ON/OFF ratio, 1.06:
U7C G9U U10G U11A C13G
U7C G9U U10G U11A C13U
U7C G9U U10G U11C C12G C13A
U7C G9U U10C U11C C12A
U7C G9U U11C C12G C13G

Aptazyme ON/OFF ratio, 1.01:
U7C G9C U11G C12A

Aptazyme ON/OFF ratio, 1.04:
U7C G9C U11A C13G
U7C G9U U10C U11A C12A C13G
U7C G9U U10C U11A C13G
U7C G9U U10A C13G
U7C G9U U10C U11A C12U C13G
U7C G9C U11C C12G C13G
U7C G9C U11C C12G C13U
U7C G9C U11C C12G C13A

Aptazyme ON/OFF ratio, 1.11:
U7C G9U U10A U11C C13A
U7C G9U U10G U11A C12G C13A
U7C G9U U10G U11C C12G C13G
U7C U8A C13G
U7C G9U C12G C13A
U7C G9U U10G U11G
U7C G9U U10A U11G C12U C13G
U7C G9U U10C U11A

Aptazyme ON/OFF ratio, 1.68:
U7C U8A C12U

Aptazyme ON/OFF ratio, 1.17:
U7C G9U U10A U11A C12G C13A
U7C G9U U11G C12G C13G
U7C G9U U10G U11C C12A C13G
U7C G9U U10G U11C C12A C13A
U7C G9U U10G U11C C12A C13U

Aptazyme ON/OFF ratio, 1.12:
U7C G9U U10G U11A C12G C13U
U7C G9C U11A C12G C13A
U7C G9U U10G U11C C12G C13U
U7C G9U U10G C12G

Aptazyme ON/OFF ratio, 1.39:
U7C G9U U11A C12U
U7C G9U U10G C12U
U7C U8A C12A C13U

Aptazyme ON/OFF ratio, 1.27:
U7C G9U U10G U11A C12G
U7C G9U U10A U11A C12U C13A

Aptazyme ON/OFF ratio, 1.21:
U7C G9U U10A U11G C13U
U7C G9U U10G C12A
U7C G9U U11G C13A

Aptazyme ON/OFF ratio, 1.25:
U7C G9U U11A C13U
U7C G9U U11A C12A C13A
U7C G9U U10A U11A C12U C13U
U7C G9U U10C U11A C12A

Aptazyme ON/OFF ratio, 1.05:
U7C G9U U11C C13U
U7C G9U U11C C13A
U7C G9C U11C C12U C13A
U7C G9U U10C C12U C13G
U7C G9C U11A C12U C13U
U7C G9U U11C C12G C13A
U7C G9U U10C U11A C12G
U7C G9U U10C U11C C12U C13U
U7C G9U U10C U11C

Aptazyme ON/OFF ratio, 1.07:
U7C G9C U10G U11G C12U
U7C G9C U11G C12G C13U
U7C G9U U10A U11C C13U
U7C G9C U11A C12A
U7C G9C U11A C12G C13G
U7C G9U U11C C12G C13U
U7C G9U C12U
U7C G9U U11C C12A C13G

Aptazyme ON/OFF ratio, 1.15:
U7C G9U U10C U11A C12A C13A
U7C G9U U10C U11A C12A C13U
U7C G9U C12G C13U
U7C G9U U11G C13U
U7C G9U U11C C12A C13A
U7C G9U U10C U11A C12G C13U

Aptazyme ON/OFF ratio, 1.44:
U7C G9U U10G U11A C12A C13U

Aptazyme ON/OFF ratio, 1.34:
U7C U8A C12A C13A
